One block for each molecule: values may come before it.
Columns and labels:
[1] = target: OsPYL1 (Oryza sativa (japonica cultivar-group)); assay: static light scattering; DAWN HELLOS II (Wyatt) at 18°C; OsPYLs about 2 mg/mL; calibrated with albumin monomer standard; oligomerization state
[2] = target: OsPYL1 (Oryza sativa (japonica cultivar-group)); assay: AUC; sedimentation velocity at 4°C, 40,000 rpm; OsPYL proteins at OD280 = 0.75; absorbance at 280 nm; oligomerization state
[3] = target: OsPYL1 (Oryza sativa (japonica cultivar-group)); assay: SEC; Superdex-200 HR10/300 GL, 25 mM HEPES pH 7.0, 150 mM NaCl; 500 µL OsPYL (OD280 = 0.75) applied; oligomerization state
OsPYL2 = target: T1, OsPYL2 (Oryza sativa, UniProt Q5Z8S0); assay: isothermal titration calorimetry; assay type: binding
T1 construct: gene PYL9; recombinant, E. coli BL21(DE3), pET-15b, Ni-NTA; mainly dimer; residues named: K74, F76, V98, L102, P103, A104, S107, E109, V125, L132, E162, F180, V184, N188
T1 sequence (Q5Z8S0 1-207): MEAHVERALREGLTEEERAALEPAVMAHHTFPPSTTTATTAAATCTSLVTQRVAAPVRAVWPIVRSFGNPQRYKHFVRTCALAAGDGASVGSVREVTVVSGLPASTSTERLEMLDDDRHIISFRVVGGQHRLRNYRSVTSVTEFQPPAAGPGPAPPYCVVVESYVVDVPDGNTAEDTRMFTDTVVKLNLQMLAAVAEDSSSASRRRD

OsPYL11 (with OsPP2C09) = target: T2, OsPYL11 (with OsPP2C09) (Oryza sativa, UniProt Q6I5C3); assay: Ser/Thr phosphatase assay, inhibition of OsPP2C09 by receptor; assay type: biochemical; conditions: ABA ten fold of OsPYL; OsPP2C09 1.8 µM; read at 630 nm
T2 construct: gene PYL5; recombinant, E. coli BL21(DE3), pET-15b; OsPYL11 monomer; equals OsPYL/RCAR5 of earlier work; with Probable protein phosphatase 2C 9
T2 sequence (Q6I5C3 1-209): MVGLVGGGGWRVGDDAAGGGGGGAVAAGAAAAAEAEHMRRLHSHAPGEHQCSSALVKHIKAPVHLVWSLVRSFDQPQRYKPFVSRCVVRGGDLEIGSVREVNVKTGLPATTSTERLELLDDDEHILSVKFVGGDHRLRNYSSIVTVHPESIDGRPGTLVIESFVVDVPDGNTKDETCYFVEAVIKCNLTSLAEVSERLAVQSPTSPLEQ
T2 sequence (Q5N9N2 1-414 partner): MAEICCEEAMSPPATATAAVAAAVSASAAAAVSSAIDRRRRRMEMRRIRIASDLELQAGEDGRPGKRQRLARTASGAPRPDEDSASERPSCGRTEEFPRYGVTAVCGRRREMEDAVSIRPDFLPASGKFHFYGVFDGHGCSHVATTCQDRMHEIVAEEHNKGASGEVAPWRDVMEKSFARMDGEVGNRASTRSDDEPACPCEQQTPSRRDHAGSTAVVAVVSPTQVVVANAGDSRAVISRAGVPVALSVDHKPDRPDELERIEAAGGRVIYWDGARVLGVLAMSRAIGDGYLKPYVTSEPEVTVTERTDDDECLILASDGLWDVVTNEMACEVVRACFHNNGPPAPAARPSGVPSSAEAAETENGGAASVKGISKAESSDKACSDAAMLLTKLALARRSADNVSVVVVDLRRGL

[4] = target: OsPYL12 (Oryza sativa (japonica cultivar-group)); assay: static light scattering; DAWN HELLOS II (Wyatt) at 18°C; OsPYLs about 2 mg/mL; calibrated with albumin monomer standard; oligomerization state
[5] = target: OsPYL12 (Oryza sativa (japonica cultivar-group)); assay: AUC; sedimentation velocity at 4°C, 40,000 rpm; OsPYL proteins at OD280 = 0.75; absorbance at 280 nm; oligomerization state
[6] = target: OsPYL12 (Oryza sativa (japonica cultivar-group)); assay: SEC; Superdex-200 HR10/300 GL, 25 mM HEPES pH 7.0, 150 mM NaCl; 500 µL OsPYL (OD280 = 0.75) applied; oligomerization state
[7] = target: the molecule itself; assay: as above

- stoichiometry N [1]: 2
- stoichiometry N [2]: 2
- stoichiometry N [3]: 2
Molecule: OsPYL1 (receptor)

- stoichiometry N [4]: 2
- stoichiometry N [5]: 2
- stoichiometry N [6]: 2
Molecule: OsPYL12 (receptor)

More lines, now with the values behind:

Molecule: CC1=CC(=O)CC(C)(C)C1(O)/C=C/C(C)=C\C(=O)O (stereo in doubt) [(+)-ABA]
- Kd (OsPYL2): ~31.3 µM
- Ser/Thr phosphatase assay, inhibition of OsPP2C09 by receptor (OsPYL11 (with OsPP2C09)): in the presence of ABA, all of the OsPYLs proteins could completely inhibit

B1: OsPYL2 (receptor, Oryza sativa (japonica cultivar-group))
chain: MEAHVERALREGLTEEERAALEPAVMAHHTFPPSTTTATTAAATCTSLVTQRVAAPVRAVWPIVRSFGNPQRYKHFVRTCALAAGDGASVGSVREVTVVSGLPASTSTERLEMLDDDRHIISFRVVGGQHRLRNYRSVTSVTEFQPPAAGPGPAPPYCVVVESYVVDVPDGNTAEDTRMFTDTVVKLNLQMLAAVAEDSSSASRRRD
notes: OsPYL2, ABA receptor (PYR1/PYL/RCAR ortholog) of Oryza sativa (japonica cultivar-group); Dimer when alone in solution (SEC, SLS, AU); stands with OsPP2C06 and ABA in the crystallised ternary complex; source: E. coli BL21 (DE3), vector pET-15b, purified (Ni-NTA, Source-15Q, Superdex-200); for the complex coexpressed with His6-OsPP2C06 (132-467) in E. coli BL21 (DE3) and purified with 0.2 mM (+)-ABA
- stoichiometry N [7]: 2

B2: OsPYL3 (receptor)
chain: ERGRGGVGAEDARGGADEVAARERLEGVVRAHHTFPAAERAAGPGRRPTCTSLVAQRVDAPLAAVWPIVRGFANPQRYKHFIKSCELAAGDGATVGSVREVAVVSGLPASTSTERLEILDDDRHVLSFRVVGGDHRLRNYRSVTSVTEFSSPSSPPRPYCVVVESYVVDVPEGNTEEDTRMFTDTVVKLNLQKLAAVATSSSPPAAGNHH
- stoichiometry N [7]: 2

From PMC3990689, “Identification and Characterization of ABA Receptors in Oryza sativa” (PLoS ONE, 2014)
